These results are taken from patent publication US20200208162.

The subject of data set [1] is TLNmir604S3Fw TALEN (encoded by cTNmir604Fw3-01). Kind of data set: cell_activity. To be noted: as pair with P2; maize NP2222 immature embryos, Chry5d2 delivery of TALEN and donor; 5.6-24.9% with other strain combinations; printed half-site ends in T ….
Data set [2] deals with TLNmir604S3Rv TALEN (encoded by cTNmir604Rv3-01). Kind of data set: cell_activity. To be noted: as pair with P1; maize NP2222 immature embryos, Chry5d2 delivery of TALEN and donor; 5.6-24.9% with other strain combinations.

In the case of “TCCGTGCAGTGCAGTGT (double strand) [MIR604FR3 forward half-site]”, the activity in data set [1] was determined as 33.3%.

On to “TCCTAAACAAAGGAGGT (double strand) [MIR604FR3 reverse half-site]”, for which, in data set [2], the activity came out at 33.3%.
